Data: the supplement of paper PMC10567573

B1: CDKN1A (parent)
chain: GRKRRQTSMTDFYHSKRRLIFSKR
B2: TRIM9 (parent)
chain: CVQCKMPVCYQCLEEGKHSSHEVK

Variants of: B1
Assay: protein stability index of a GFP-peptide fusion (GPS, HEK-293T) (PSI 1-6); higher = more stable
Conditions: c terminus: a fixed tail appended
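Further: lentivirally expressed fusions sorted by FACS into six bins by GFP to DsRed ratio, PSI derived from sequencing read proportions per bin multiplied by bin number.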

In order of falling protein stability index:
1. Y13D  4.24
2. Y13R  3.93
3. F21S  3.66
4. F21N  3.63
5. Y13S  3.57
6. Y13P  3.53
7. F21W  3.45
8. F21I  3.27
9. R24W  3.26
10. Y13C  3.2
11. F21G  3.13
12. R24N  3.1
13. R24Y  2.91
14. R24I  2.91
15. L19I  2.65
16. F21E  2.62
17. Y13M  2.33
18. R24K  2.24
19. R24M  2.17
20. R24V  2

Variants of: B2
Assay: as above
Conditions: c terminus: a fixed tail appended

In order of falling protein stability index:
1. CVQCKSPVCYQCLEEGKHSSHEVK [M6S]  4.97
2. CVQCKGPVCYQCLEEGKHSSHEVK [M6G]  4.93
3. CVQCKDPVCYQCLEEGKHSSHEVK [M6D]  4.71
4. CHQCKMPVCYQCLEEGKHSSHEVK [V2H]  4.63
5. CVHCKMPVCYQCLEEGKHSSHEVK [Q3H]  4.52
6. HVQCKMPVCYQCLEEGKHSSHEVK [C1H]  4.52
7. CVNCKMPVCYQCLEEGKHSSHEVK [Q3N]  4.49
8. CVQCKKPVCYQCLEEGKHSSHEVK [M6K]  4.46
9. CVQCGMPVCYQCLEEGKHSSHEVK [K5G]  4.38
10. CVQCKEPVCYQCLEEGKHSSHEVK [M6E]  4.37
11. CVQCKQPVCYQCLEEGKHSSHEVK [M6Q]  4.36
12. CVQCKHPVCYQCLEEGKHSSHEVK [M6H]  4.3
13. CKQCKMPVCYQCLEEGKHSSHEVK [V2K]  4.29
14. CSQCKMPVCYQCLEEGKHSSHEVK [V2S]  4.25
15. CVRCKMPVCYQCLEEGKHSSHEVK [Q3R]  4.22
16. CVQCEMPVCYQCLEEGKHSSHEVK [K5E]  4.22
17. CVQCKNPVCYQCLEEGKHSSHEVK [M6N]  4.22
18. CPQCKMPVCYQCLEEGKHSSHEVK [V2P]  4.18
19. CVQCKRPVCYQCLEEGKHSSHEVK [M6R]  4.17
20. CDQCKMPVCYQCLEEGKHSSHEVK [V2D]  4.16
21. CVQCRMPVCYQCLEEGKHSSHEVK [K5R]  4.15
22. CVQKKMPVCYQCLEEGKHSSHEVK [C4K]  4.13
23. CVSCKMPVCYQCLEEGKHSSHEVK [Q3S]  4.12
24. CVQPKMPVCYQCLEEGKHSSHEVK [C4P]  4.11
25. CQQCKMPVCYQCLEEGKHSSHEVK [V2Q]  4.04
26. CVQCNMPVCYQCLEEGKHSSHEVK [K5N]  4.04
27. QVQCKMPVCYQCLEEGKHSSHEVK [C1Q]  4.03
28. CIQCKMPVCYQCLEEGKHSSHEVK [V2I]  4.02
29. CVQDKMPVCYQCLEEGKHSSHEVK [C4D]  4.01
30. CVCCKMPVCYQCLEEGKHSSHEVK [Q3C]  3.99
31. CVQCKLPVCYQCLEEGKHSSHEVK [M6L]  3.99
32. CCQCKMPVCYQCLEEGKHSSHEVK [V2C]  3.98
33. CAQCKMPVCYQCLEEGKHSSHEVK [V2A]  3.97
34. EVQCKMPVCYQCLEEGKHSSHEVK [C1E]  3.95
35. CVQCKAPVCYQCLEEGKHSSHEVK [M6A]  3.95
36. CEQCKMPVCYQCLEEGKHSSHEVK [V2E]  3.92
37. CVDCKMPVCYQCLEEGKHSSHEVK [Q3D]  3.91
38. CVQCSMPVCYQCLEEGKHSSHEVK [K5S]  3.9
39. CVQCKFPVCYQCLEEGKHSSHEVK [M6F]  3.89
40. CVQCMMPVCYQCLEEGKHSSHEVK [K5M]  3.87
41. CVQYKMPVCYQCLEEGKHSSHEVK [C4Y]  3.86
42. CTQCKMPVCYQCLEEGKHSSHEVK [V2T]  3.85
43. CVQCCMPVCYQCLEEGKHSSHEVK [K5C]  3.84
44. CVECKMPVCYQCLEEGKHSSHEVK [Q3E]  3.82
45. CRQCKMPVCYQCLEEGKHSSHEVK [V2R]  3.8
46. CVQCHMPVCYQCLEEGKHSSHEVK [K5H]  3.8
47. DVQCKMPVCYQCLEEGKHSSHEVK [C1D]  3.77
48. TVQCKMPVCYQCLEEGKHSSHEVK [C1T]  3.75
49. CVQCDMPVCYQCLEEGKHSSHEVK [K5D]  3.75
50. CVGCKMPVCYQCLEEGKHSSHEVK [Q3G]  3.73
51. CVKCKMPVCYQCLEEGKHSSHEVK [Q3K]  3.73
52. CVQCKCPVCYQCLEEGKHSSHEVK [M6C]  3.73
53. CYQCKMPVCYQCLEEGKHSSHEVK [V2Y]  3.71
54. CVQLKMPVCYQCLEEGKHSSHEVK [C4L]  3.68
55. CMQCKMPVCYQCLEEGKHSSHEVK [V2M]  3.67
56. KVQCKMPVCYQCLEEGKHSSHEVK [C1K]  3.65
57. CVQHKMPVCYQCLEEGKHSSHEVK [C4H]  3.62
58. CVQCKPPVCYQCLEEGKHSSHEVK [M6P]  3.62
59. CGQCKMPVCYQCLEEGKHSSHEVK [V2G]  3.6
60. CVICKMPVCYQCLEEGKHSSHEVK [Q3I]  3.6
61. RVQCKMPVCYQCLEEGKHSSHEVK [C1R]  3.58
62. CVTCKMPVCYQCLEEGKHSSHEVK [Q3T]  3.56
63. CVQCPMPVCYQCLEEGKHSSHEVK [K5P]  3.52
64. CFQCKMPVCYQCLEEGKHSSHEVK [V2F]  3.51
65. CLQCKMPVCYQCLEEGKHSSHEVK [V2L]  3.5
66. CNQCKMPVCYQCLEEGKHSSHEVK [V2N]  3.46
67. CVMCKMPVCYQCLEEGKHSSHEVK [Q3M]  3.4
68. CVQCAMPVCYQCLEEGKHSSHEVK [K5A]  3.4
69. CVQCKIPVCYQCLEEGKHSSHEVK [M6I]  3.4
70. CVQQKMPVCYQCLEEGKHSSHEVK [C4Q]  3.39
71. CVQEKMPVCYQCLEEGKHSSHEVK [C4E]  3.38
72. CVQCTMPVCYQCLEEGKHSSHEVK [K5T]  3.38
73. CVQMKMPVCYQCLEEGKHSSHEVK [C4M]  3.37
74. CVQNKMPVCYQCLEEGKHSSHEVK [C4N]  3.3
75. LVQCKMPVCYQCLEEGKHSSHEVK [C1L]  3.27
76. VVQCKMPVCYQCLEEGKHSSHEVK [C1V]  3.23
77. CVQSKMPVCYQCLEEGKHSSHEVK [C4S]  3.23
78. CVQAKMPVCYQCLEEGKHSSHEVK [C4A]  3.2
79. CVQWKMPVCYQCLEEGKHSSHEVK [C4W]  3.17
80. CWQCKMPVCYQCLEEGKHSSHEVK [V2W]  3.16
81. CVQGKMPVCYQCLEEGKHSSHEVK [C4G]  3.15
82. CVFCKMPVCYQCLEEGKHSSHEVK [Q3F]  3.1
83. IVQCKMPVCYQCLEEGKHSSHEVK [C1I]  3.08
84. CVYCKMPVCYQCLEEGKHSSHEVK [Q3Y]  3.04
85. CVQCWMPVCYQCLEEGKHSSHEVK [K5W]  3.03
86. WVQCKMPVCYQCLEEGKHSSHEVK [C1W]  2.98
87. CVACKMPVCYQCLEEGKHSSHEVK [Q3A]  2.96
88. CVPCKMPVCYQCLEEGKHSSHEVK [Q3P]  2.94
89. MVQCKMPVCYQCLEEGKHSSHEVK [C1M]  2.93
90. CVQTKMPVCYQCLEEGKHSSHEVK [C4T]  2.93
91. CVQVKMPVCYQCLEEGKHSSHEVK [C4V]  2.9
92. CVWCKMPVCYQCLEEGKHSSHEVK [Q3W]  2.88
93. GVQCKMPVCYQCLEEGKHSSHEVK [C1G]  2.88
94. PVQCKMPVCYQCLEEGKHSSHEVK [C1P]  2.86
95. CVQRKMPVCYQCLEEGKHSSHEVK [C4R]  2.83
96. CVQCQMPVCYQCLEEGKHSSHEVK [K5Q]  2.83
97. NVQCKMPVCYQCLEEGKHSSHEVK [C1N]  2.79
98. CVQFKMPVCYQCLEEGKHSSHEVK [C4F]  2.66
99. FVQCKMPVCYQCLEEGKHSSHEVK [C1F]  2.58
100. CVQCLMPVCYQCLEEGKHSSHEVK [K5L]  2.58
101. CVQCYMPVCYQCLEEGKHSSHEVK [K5Y]  2.56
102. CVQCFMPVCYQCLEEGKHSSHEVK [K5F]  2.52
103. CVQIKMPVCYQCLEEGKHSSHEVK [C4I]  2.44
104. CVQCVMPVCYQCLEEGKHSSHEVK [K5V]  2.41
105. CVQCIMPVCYQCLEEGKHSSHEVK [K5I]  2.05
106. YVQCKMPVCYQCLEEGKHSSHEVK [C1Y]  1.74
